One assay concerns the target T1, CD44 (Homo sapiens, UniProt P16070).
T1 construct: purchased Sino Biological Inc. 12211-H08H
Nature of the assay: Ligand binding ELISA on immobilised CD44. The following applies: HRP-conjugated recombinant proteins; wells coated with 10 μg/ml CD44; 2 h; OD 450 nm. Here is the method:
Plate wells (9018; Corning Costar) were coated with 10 μg/ml of CD44 (12211‐H08H; Sino Biological Inc.) in PBS (pH 7.2) and then blocking for 1 h with the blocking buffer including 3% milk in PBS. For the stability binding experiments, the PTX3‐devired biotinylated peptides were pre‐incubated in serum for 1, 2, 4 or 6 h. For the binding experiments, the horseradish peroxidase (HRP)‐conjugated recombinant PTX3, PTX3/N, PTX3/C and PTX3NA or PTX3‐devired biotinylated peptides AD9, GR9, P2rdAD9 and P12rdGR9 (32310; LEADGENE) was responded in the well for 2 h. For the peptide of competition experiments, the PTX3‐devired biotinylated peptides RI37 and GI40 were diluted at the indicated concentration in PBS. After 2 h, PBS washed three times and then incubated with 5 μg/ml HRP‐conjugated PTX3 in PBS for 1 h at room temperature (RT). For the antibody competition experiments, Ab‐10 and Ab‐49 were incubated with 5 μg/ml HRP‐conjugated PTX3 in PBS for 2 h at RT. After incubation, the mixtures was responded in the well for 1 h at RT and then PBS washed three times, tetramethyl benzidine (TMB) was used to detect the bound HRP conjugate. After 15 min, the peroxidase reaction was stopped by adding 0.1 M H2SO4. Next, ELISA plate reader was used to detect the optical densities at 450 nm.
A general note: An ELISA detects its analyte on a solid surface through an enzyme-linked reagent.

For another assay, the system named is MDA-MB-231 cells. Nature of the assay: Transwell migration and Matrigel invasion assays. Format: cell-based, human. The following applies: treatment in lower well, 18 h. The source says: In migration assay, MDA‐MB‐231 cells seeded in 8.0 μm pore polycarbonate membrane inserts (BD Biosciences) in 24‐well plates. In Matrigel invasion assay, inserts were pre‐coated with an appropriate amount of Matrigel first, and the same number of cells seeded on the Matrigel. After cells adhered on the inserts, serum‐free DMEM medium added in the upper wells. Serum‐free medium containing the treatments of TGF‐β1, PTX3, PTX3NA, PTX3/N, PTX3/C, RI37, GI40, AD9, GR9, IgG1κ, PTX3 Ab‐10 or PTX3 Ab‐49 were then mixed into the lower wells of the 24‐well plates. After incubating for 18 h, cells outside the insert were removed by wiping. The inside the inserts were then stained by 4′,6‐diamidino‐2‐phenylindol (DAPI). Fluorescence microscope was used for counting the total number of migrated cells with 200× magnification. Different from the experimental design for the MDA‐MB‐231 cells, the migrated 4T1‐Luc2 cells in the inside of the insert were detected by luciferase activity.

T1 sequence (P16070 21-220 limits assumed): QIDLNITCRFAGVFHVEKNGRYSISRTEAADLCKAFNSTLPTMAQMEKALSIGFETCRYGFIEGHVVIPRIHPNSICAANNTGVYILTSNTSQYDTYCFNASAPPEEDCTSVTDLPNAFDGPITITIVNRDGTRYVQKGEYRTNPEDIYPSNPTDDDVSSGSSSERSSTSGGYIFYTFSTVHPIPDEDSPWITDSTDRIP

B1: PTX3/C: recombinant truncated mutant, C‐terminus of PTX3, amino acids 180–381 (protein)
chain: ETAILFPMRSKKIFGSVHPVRPMRLESFSACIWVKATDVLNKTILFSYGTKRNPYEIQLYLSYQSIVFVVGGEENKLVAEAMVSLGRWTHLCGTWNSEEGLTSLWVNGELAATTVEMATGHIVPEGGILQIGQEKNGCCVGGGFDETLAFSGRLTGFNIWDSVLSNEEIRETGGAESCHIRGNIVGWGVTEIQPHGGAQYVS
modifications: left off: HRP conjugate, end not stated, kept
B1: the “binding to immobilised CD44” value with CD44 is reported as “could bind”. Moreover, the “migration and invasion, protein alone” value with MDA-MB-231 cells was “mimics PTX3 to induce”.

These data come from PMC8797470, “Disruption of the pentraxin 3/CD44 interaction as an efficient therapy for triple‐negative breast cancers” (Clinical and Translational Medicine, 2022).
